Data as given in publication doi:10.1101/2024.09.06.611628 (bioRxiv, 2024).

Molecular target: T1, CATCH(-) peptide
T1 peptide: Ac-EQEFEFEFEQE-NH2
Assay: gelation on mixing

B1: CATCH(+) peptide (peptide)
peptide: Ac-QQKFKFKFKQQ-NH2
binding result: binds
